Laboratory results: patent publication US20100209400A1, “TAK1-Mediated Regulation of Osteogenesis” (priority 2003, published 2010)

Tests used:
Type in all cases: cell-based, human
[1] = system: SMAD1 trans-activation potential; experiment: GAL4 DBD-SMAD1 luciferase trans-activation reporter assay
Procedure: (§1) Reporter assays using the GALA DNA binding domain fused to various forms of SMAD proteins were performed as described (Meersseman, G at al, Mech. Dev, 61: 127-140, 1997). Briefly, 420 nanograms (ng) DNA was transfected/well (24 well-plate seeded with 1×10^5 HEK 293T cells) one day prior to transfection. The DNA mix included a plasmid expressing β-galactosidase under the control of the RSV promoter, for normalization purposes and a reporter plasmid encoding firefly luciferase under the control of 5 GAL4 binding sites upstream of a minimal TATA box (pG5 luc, Promega, Mannheim) and combinations of effector plasmids. The DNA content was normalized with empty vector.
Cells were harvested and lysed. β-Galactosidase (β-gal) activity was measured via the luminescent β-galactosidase kit II (Clontech, Palo Alto, Calif.), and luciferase activity via the luciferase assay system (Promega, Mannheim). All results are expressed as luciferase activity normalized with β-gal values (“relative luciferase activities”). Reporter assays with the SMAD1 DNA binding element SBE-9 (GCCG×9) (Kusanagi K et al, Mol Biol Cell 11: 555-565, 2000) cloned into pCAT5 vector (Boshart M et al, Gene 110: 129-130, 1992) were performed similarly except that cells were lysed in CAT lysis buffer. CAT enzyme was measured via CAT ELISA assay and β-gal via chemiluminescent β-gal reporter gene assay (Roche, Mannheim).
To determine whether MH2 domains involved in TAK1 binding mediated inhibition of R-SMAD biological activity, a reporter assay measuring SMAD trans-activation potential was performed. Full-length SMAD1 and deletion mutants thereof were fused in-frame with the GAL4-DNA binding domain, and SMAD trans-activation potential was measured via UAS-driven-luciferase reporter expression (FIGS. 6B & C). The trans-activating potential of SMAD1/GAL4 hybrid molecules was measured with increasing amounts of TAK1 variants. […]

[2] = system: SMAD1-mediated transcription; experiment: SMAD1-SBE CAT reporter assay; details: following activation by constitutively active receptors
Procedure: as §1
Cells were harvested and lysed. β-Galactosidase (β-gal) activity was measured via the luminescent β-galactosidase kit II (Clontech, Palo Alto, Calif.), and luciferase activity via the luciferase assay system (Promega, Mannheim). All results are expressed as luciferase activity normalized with β-gal values (“relative luciferase activities”). Reporter assays with the SMAD1 DNA binding element SBE-9 (GCCG×9) (Kusanagi K et al, Mol Biol Cell 11: 555-565, 2000) cloned into pCAT5 vector (Boshart M et al, Gene 110: 129-130, 1992) were performed similarly except that cells were lysed in CAT lysis buffer. CAT enzyme was measured via CAT ELISA assay and β-gal via chemiluminescent β-gal reporter gene assay (Roche, Mannheim). […]

[3] = system: nucleo-cytoplasmic shuttling of SMAD1 and SMAD3; experiment: Immunofluorescence of Flag-tagged SMAD1 and SMAD3 localisation in HEK293T cells; details: Flag-tagged SMADs
Procedure: HEK293T cells were seeded at 2×10^5 cells/well into poly-D-lysine coated 6-well plates one day prior to transfection. Transient transfections were conducted with Fugene 6. After 30 hours, the cells were fixed with 4% paraformaldehyde in phosphate buffered saline (PBS) for 10 minutes, washed twice with PBS, and permeabilized with methanol followed by 0.5% Triton-X 100 in PBS. After washing with 0.1% Triton-X 100 in PBS (PBT), blocking was performed with 5% FCS in PBT for 1 hour at room temperature. Following another PBT wash, tagged proteins were incubated with the appropriate primary antibodies. Detection was accomplished via goat anti mouse-Alexa 488 (A-11001, Molecular Probes) (5 μg/ml) antibody for murine primary antibodies.
To determine whether TAK1-dependent interference with SMAD activity affected subcellular distribution of SMAD, immunofluorescence was used to localize flag-tagged SMAD1 or SMAD3 expressed in HEK293T cells in the absence or presence of constitutively active receptors (FIG. 7).

trans-activating potential of GAL4-SMAD1-MH2 and GAL4-SMAD1-L+MH2 constructs ([1]; FIG. 6C): no effect | trans-activation activity after sharp drop from elevated value ([1]; higher amounts of TAK1dn): roughly 70% | increase of SMAD trans-activation ([1]; low concentrations of TAK1dn): 35%
B1: TAK1dn: dominant-negative TAK1 mutant (K63W), kinase inactive (protein)
chain: MSTASAASSSSSSSASEMIEAPSQVLNFEEIDYKEIEVEEVVGRGAFGVVCKAKWRAKDVAIWQIESESERKAFIVELRQLSRVNHPNIVKLYGACLNPVCLVMEYAEGGSLYNVLHGAEPLPYYTAAHAMSWCLQCSQGVAYLHSMQPKALIHRDLKPPNLLLVAGGTVLKICDFGTACDIQTHMTNNKGSAAWMAPEVFEGSNYSEKCDVFSWGIILWEVITRRKPFDEIGGPAFRIMWAVHNGTRPPLIKNLPKPIESLMTRCWSKDPSQRPSMEEIVKIMTHLMRYFPGADEPLQYPCQYSDEGQSNSATSTGSFMDIASTNTSNKSDTNMEQVPATNDTIKRLESKLLKNQAKQQSESGRLSLGASRGSSVESLPPTSEGKRMSADMSEIEARIVATAGNGQPRRRSIQDLTVTGTEPGQVSSRSSSPSVRMITTSGPTSEKPARSHPWTPDDSTDTNGSDNSIPMAYLTLDHQLQPLAPCPNSKESMAVFEQHCKMAQEYMKVQTEIALLLQRKQELVAELDQDEKDQQNTSRLVQEHKKLLDENKSLSTYYQQCKKQLEVIRSQQQKRQGTS
modifications: left off: small tags and cut ends
inhibition of SMAD1 transcription (CAT reporter), in words [2]: minimal inhibition | subcellular localisation of SMAD1 and SMAD3 [3]: predominantly in the nucleus
